Data: patent US8620595B2, “Methods for determining the retention of peptides in reverse phase chromatography using linear solvent strength theory” (University of Manitoba, priority 2010, dated 2013)

Experiments:
[1] = Isocratic elution measurement of slope S (log k vs. φ plots), RP-HPLC with UV detection; assay type: physicochemical; conditions: Luna C18(2) column, water/acetonitrile with 0.1% formic acid, 22-23° C.
Description: (§1) Chromatography. All chromatographic experiments were conducted at a controlled temperature of 22-23° C. For isocratic measurement of the slope values, a micro-Agilent 1100 Series system (Agilent Technologies, Wilmington, Del.), was used with a 1 mm×100 mm 5 μm Luna C18(2) (Phenomenex, Torrance, Calif.) column and a UV detector operated at 214 nm. Both eluents A (water) and B (acetonitrile) contained 0.1% formic acid as ion-pairing modifier. Stock solutions of the 11 standard peptides (˜1 mg/ml) were prepared by dissolving each peptide in 1 ml of 0.1% FA in water or a 20% acetonitrile solution. Ten microliters of sample was injected. Individual peptides were diluted to provide ˜0.5-1 μg injection of each component using a 10 μl loop. The dead volume of the column and connecting tubings was determined by injecting a non-retained compound (water) and measuring the elution time of the negative peak at a 150 μL/min flow rate. Retention factors for isocratic elution were calculated using the formula: k=(tR−t0)/t0c; where tR is the retention time, t0 is the system (column and tubings) dead time, and t0c is the column dead time. Additional details of measuring S-values via constructing log k vs. φ plots are provided elsewhere.^24 The nano-LC MS/MS experiments were conducted using splitless Tempo LC system (Eksigent, Dublin, Calif.) with 20 μL sample injection via a 300 μm×5 mm PepMap100 (Dionex, Sunnyvale, Calif.) trap-column and a 100 μm×200 mm analytical column packed with 5 μm Luna C18(2) (Phenomenex, Torrance, Calif.). Tryptic digests of the mixtures were spiked with calibrating peptides (see Table 1) as described above, injected on the trap-column using buffer A as a carrier and separated using 0.1875, 0.375 and 0.75 percent acetonitrile per minute linear gradients starting from 0.5% acetonitrile at 500 nL/min flow rate. The composition of both eluents A and B was identical to one described above for normal-flow system. Gradient programs consisted of a 0.5-40% linear increase of buffer B in 213.2, 106.6 and 53.3 minutes, respectively. After each run the gradient columns were washed with 80% B for 3 minutes and equilibrated with the starting A:B ratio for 18 minutes.
Accordingly, for the determination of S-values of the set of synthetic peptides we used an isocratic elution procedure, despite it being extremely labor intense.^23 Isocratic measurements consist of determining retention times of peptides at several constant acetonitrile concentrations and plotting experimental Eqn. 1 for each peptide.
These two ways of measurement have been combined to provide a highly accurate and fast way of determining S for an extensive sets of peptides (see FIG. 3). First, precise isocratic measurement of S is performed in normal flow conditions with UV detection for a set of synthetic “S-calibrating” peptides. Similar to the previously described peptide mixture P1-P6 designed to cover wide range of hydrophobicities, these peptides were chosen to cover wide range of S-values (Table 1). Second—a tryptic digest of the bovine proteins mixture (model mixture) is spiked with the “S-calibrating” peptides and run under two different gradient slopes in nano-flow RP-HPLC MS: 0.75 and 0.1875% acetonitrile per minute in our case. Third—retention times are assigned for all identified species. Fourth—retention time shifts in acetonitrile percentage (ACN %) units relative to P3 were determined as: Δ=(tR 0.75−tRP3 0.75)*0.75−(tR 0.1875−tRP3 0.1875)*0.1875 (3); where tR 0.75 and tRP3 0.75 are the retention times of any peptide and reference P3 at 0.75% per minute, and tR 0.1875 and tRP3 0.1875 are the retention times of any peptide and reference P3 at 0.1875% acetonitrile per minute gradient, respectively. Fifth—an experimental Δ vs. S curve was plotted for S-calibrating peptides (FIG. 3). Sixth—S values were extracted from this dependence for all peptides observed in both nano-RP-HPLC MS runs by extrapolation of experimental Δ on this plot.

[2] = Determination of S from retention time shift Δ relative to P3 at two gradient slopes, nano-RP-HPLC MS of spiked tryptic digest; assay type: physicochemical; conditions: for Slope (experimental): LC-MS runs of model peptide mixture
Description: Proteins and protein digestion. Tryptic digests of two different protein mixtures were utilized. The “test peptide mixture” contained human proteins: albumin, transferrin, fibrinogen. The “model peptide mixture” contained bovine proteins: albumin, transferrin, fibrinogen, catalase. Equimolar mixtures of the proteins were prepared, reduced with DTT, alkylated with iodoacetamide and digested with sequencing-grade modified trypsin (Promega, Madison, Wis.). Prior to nano-LC MS/MS analysis, mixtures were diluted with buffer A (0.1% formic acid in water) and spiked with the 6 standard peptides P1-P6^24 for test mixture and the set of 11 model peptides (described elsewhere^23) for a model mixture. All dilutions were performed to provide an injection of ˜100 fmole of each component into the nanoRP-HPLC MS system.
as §1
Mass spectrometry. A QStar Elite mass spectrometer (Applied Biosystems, Foster City, Calif.) equipped with a MicrolonSpray II source was used in standard MS/MS information dependent acquisition (IDA) mode for LC-ESI analyses. Protein identification was performed using Protein Pilot 3.0 (Applied Biosystems, Foster City, Calif.) with a restricted database containing target protein sequences and the sequences of standard peptides. Retention times of identified species (peak maxima) were assigned manually.
These two ways of measurement have been combined to provide a highly accurate and fast way of determining S for an extensive sets of peptides (see FIG. 3). First, precise isocratic measurement of S is performed in normal flow conditions with UV detection for a set of synthetic “S-calibrating” peptides. […]

LLGGSLSSLHAAFR [Peptide 10, synthetic S-calibrating peptide]
Slope (S in the basic LSS equation) [1]: 33.81

LASAAHFR [Peptide 7, synthetic S-calibrating peptide]
Slope (S in the basic LSS equation) [1]: 35.59

LGGGGGGDFR [Peptide 1, synthetic S-calibrating peptide]
Slope (S in the basic LSS equation) [1]: 28.2

LLSLADFG [Peptide 8, synthetic S-calibrating peptide]
Slope (S in the basic LSS equation) [1]: 19.2

LAGGGSASSSADAAAFR [Peptide 9, synthetic S-calibrating peptide]
Slope (S in the basic LSS equation) [1]: 34.8

LASAADFR [Peptide 6, synthetic S-calibrating peptide]
Slope (S in the basic LSS equation) [1]: 27.07

LLLGGDFR [Peptide 3, synthetic S-calibrating peptide]
Slope (S in the basic LSS equation) [1]: 21.46

LAGGGSASSSAHAAAFR [Peptide 11, synthetic S-calibrating peptide]
Slope (S in the basic LSS equation) [1]: 44.66

LLLLDFR [Peptide 4, synthetic S-calibrating peptide]
Slope (S in the basic LSS equation) [1]: 21.78

LLLLLDFR [Peptide 5, synthetic S-calibrating peptide]
Slope (S in the basic LSS equation) [1]: 22.76

LLGGGGDFR [Peptide 2]
Slope (S in the basic LSS equation) [1]: 24.76
Slope (S in the basic LSS equation) ([1]; listed as P3): 24.76

VTGENDKYR [moderately sized, hydrophilic tryptic species of the model peptide mixture]
Slope (experimental) ([2]; experimental S, formic acid): 49.044
experimental S-value ([2]; model peptide mixture (tryptic digest of bovine proteins), 0.75 and 0.1875% acetonitrile per minute gradients, formic acid, S from Δ vs. S curve of S-calibrating peptides): 49.0

CGLVPVLAENR
Slope (experimental) ([2]; experimental S, formic acid): 26.128

IQALLDKYNEEKPKN
Slope (experimental) ([2]; experimental S value): 40.038

LVTDLTK
Slope (experimental) ([2]; experimental S value): 28.077

DNCCILDER
Slope (experimental) ([2]; experimental S, formic acid): 28.077

ESPQTHYYAVAVVK
Slope (experimental) ([2]; experimental S value): 36.262

GDKELLIDNEK
Slope (experimental) ([2]; experimental S, formic acid): 32.311

LKPDPNTLCDEFK
Slope (experimental) ([2]; experimental S value): 36.757

LLLGGDFR
Slope (experimental) ([2]; experimental S value): 22.643

CCAADDKEACFAVEGPK
Slope (experimental) ([2]; experimental S, formic acid): 38.207

TPIAVR
Slope (experimental) ([2]; experimental S value): 33.313

CLMEGAGDVAFVK
Slope (experimental) ([2]; experimental S value): 30.666

DNPQTHYYAVAVVK
Slope (experimental) ([2]; experimental S value): 34.815

RLDGSLDFKK
Slope (experimental) ([2]; experimental S value): 35.968

APVDAFKECHLAQVPSHAVVAR
Slope (experimental) ([2]; experimental S value): 46.264

IIPLNR
Slope (experimental) ([2]; experimental S value): 28.596

SNLQLLR
Slope (experimental) ([2]; experimental S value): 24.614

RPCFSALTPDETYVPK
Slope (experimental) ([2]; experimental S value): 38.129

VFEHIGK
Slope (experimental) ([2]; experimental S value): 34.229

LASAAHFR
Slope (experimental) ([2]; experimental S value): 38.571

IVNLR
Slope (experimental) ([2]; experimental S value): 29.724

LLCLDGTR
Slope (experimental) ([2]; experimental S, formic acid): 25.325

LLSLLDFR
Slope (experimental) ([2]; experimental S value): 24.464

ALLEMQQTK
Slope (experimental) ([2]; experimental S, formic acid): 26.288

GGWTVIQNR
Slope (experimental) ([2]; experimental S value): 26.957

SILENLR
Slope (experimental) ([2]; experimental S value): 24.865

INLLQK
Slope (experimental) ([2]; experimental S, formic acid): 24.664

LLGGGGDFR
Slope (experimental) ([2]; experimental S, formic acid): 25.846

KPVTDAENCHLAR
Slope (experimental) ([2]; experimental S value): 48.023

VHKECCHGDLLECADDRADLAK
Slope (experimental) ([2]; experimental S, formic acid): 44.599

LAGGGSASSSADAAAFR
Slope (experimental) ([2]; experimental S, formic acid): 35.894
